Experimental findings from paper PMC5548840, “The FAD synthetase from the human pathogen Streptococcus pneumoniae: a bifunctional enzyme exhibiting activity-dependent redox requirements” (Scientific Reports, 2017) are described below.

The nature of data set [1]: SEC; 20 uM pure SpnFADS on a calibrated Superdex 200 10/300 GL column, 50 mM Tris/HCl, pH 8.0, 150 mM NaCl; freshly purified fraction considered as monomeric.
Data set [2] concerns the target T1, SpnFADS (Streptococcus pneumoniae, UniProt A0A0H2UPY5).
T1 construct: gene SP_1110; full length (modules 1-186 FMNAT, 187-305 RFK); N-terminal His6-PreScission tag removed; codon-optimised synthetic gene in modified pET-15b, E. coli BL21 Star (DE3); 34,521 Da; mainly monomer
Nature of the data set: isothermal titration calorimetry. The format is binding. Particulars: 20 mM PIPES pH 7.0, 20 °C, free enzyme. The source says:
isothermal titration calorimetry on SpnFADS

The target of data set [3] is FAD synthetase from Streptococcus pneumoniae (SpnFADS) (Streptococcus pneumoniae). In words: cross-linking; pure SpnFADS in 50 mM KHPO4, pH 8.0, with BS3 crosslinker for 2 h at 4 °C, then 15% SDS-PAGE.
Data set [4] shares this target. Nature of the data set: atomic force microscopy; 0.5 uM SpnFADS on mica, no ligand; 20 mM PIPES, pH 6.0, 2 mM DTT, 0.8 mM MgCl2, room temperature.
Data set [5] has the same target. In words: atomic force microscopy; 0.5 uM SpnFADS on mica, with 250 uM ADP; 20 mM PIPES, pH 6.0, 2 mM DTT, 0.8 mM MgCl2, room temperature.
Data set [6] shares this target. In words: atomic force microscopy; 0.5 uM SpnFADS on mica, with 250 uM ATP; 20 mM PIPES, pH 6.0, 2 mM DTT, 0.8 mM MgCl2, room temperature.
Data set [7] shares this target. In words: atomic force microscopy; 0.5 uM SpnFADS on mica, with 250 uM ATP and 50 uM RF; 20 mM PIPES, pH 6.0, 2 mM DTT, 0.8 mM MgCl2, room temperature.
The target is the same in data set [8]. Nature of the data set: atomic force microscopy; 0.5 uM SpnFADS on mica, with 250 uM ADP and 50 uM FMN; 20 mM PIPES, pH 6.0, 2 mM DTT, 0.8 mM MgCl2, room temperature.
For data set [9] the target is unchanged. In words: atomic force microscopy; 0.5 uM SpnFADS on mica, with 250 uM ATP and 50 uM FMN; 20 mM PIPES, pH 6.0, 2 mM DTT, 0.8 mM MgCl2, room temperature.
For data set [10] the target is unchanged. In words: atomic force microscopy; 0.5 uM SpnFADS on mica, with 50 uM FAD and 250 uM PPi; 20 mM PIPES, pH 6.0, 2 mM DTT, 0.8 mM MgCl2, room temperature.
The target in data set [11] is T1, SpnFADS. In words: HPLC of flavin products, steady-state FMNAT activity. As to conditions: 20 mM PIPES pH 7.0, 25 °C. It is filed as biochemical. The source says:
HPLC of flavin products, steady-state FMNAT activity on SpnFADS

Data set [12] addresses T1, SpnFADS. Nature of the data set: HPLC of flavin products, steady-state RFK activity. It is filed as biochemical. Particulars: saturating ATP (412 μM), 20 mM PIPES pH 7.0, 25 °C, 0.8 mM MgCl2, no dithionite. The text has this: HPLC of flavin products, steady-state RFK activity on SpnFADS
The mark [13] stands for this setting: 0.8 mM MgCl2, 4 mM sodium dithionite, 10 mM glucose, 0.5 U/mL glucose oxidase, reduced flavin, single site (FMNAT).

T1 sequence (A0A0H2UPY5 entry or part of it): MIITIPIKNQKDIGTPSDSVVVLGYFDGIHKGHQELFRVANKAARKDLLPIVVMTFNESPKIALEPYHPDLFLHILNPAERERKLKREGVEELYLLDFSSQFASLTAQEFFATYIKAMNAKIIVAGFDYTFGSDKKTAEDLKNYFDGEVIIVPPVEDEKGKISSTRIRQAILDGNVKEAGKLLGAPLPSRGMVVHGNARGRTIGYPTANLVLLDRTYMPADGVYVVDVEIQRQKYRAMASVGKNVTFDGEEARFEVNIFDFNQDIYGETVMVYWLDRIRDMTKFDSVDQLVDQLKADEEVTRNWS

“FAD synthetase from Streptococcus pneumoniae (SpnFADS)”: the “percent of the protein in the main peak at ~14.5 mL (monomers or dimers)” value in [1] was “∼96% of the protein”.

For the molecule `Cc1cc2c(cc1C)N(C[C@H](O)[C@H](O)[C@H](O)COP(=O)(O)OP(=O)(O)OC[C@H]1O[C@@H](n3cnc4c(N)ncnc43)[C@H](O)[C@@H]1O)c1[nH]c(=O)[nH]c(=O)c1N2` [reduced FAD], the “K d (μM)” value in data set [2] (setting [13]) worked out at 12.5 ± 20% μM.

“FAD synthetase from Streptococcus pneumoniae (SpnFADS) (enzyme)” yielded a stoichiometry N in data set [3] of 2. Also, in [4], the % of features that are dimers came to 3%, the % of features that are monomers is 97%, the % of molecules in dimers was 6% and the % of molecules in monomers is 94%. In [5], this molecule gave a % of features that are dimers of 7%, a % of features that are monomers of 60%, a % of features that are tetramers of 20% and a % of features that are trimers of 13%. For the same molecule, in [5], the % of molecules in dimers is 7%, the % of molecules in monomers is 31%, the % of molecules in tetramers was determined as 47% and the % of molecules in trimers amounted to 20%. In data set [6], this molecule registered a % of features that are dimers of 12%, a % of features that are monomers of 70%, a % of features that are trimers of 18% and a % of molecules in dimers of 16%. Moreover, in data set [6], the % of molecules in monomers is 47% and the % of molecules in trimers is 37%. In data set [7], this molecule displayed a % of features that are dimers of 20%, a % of features that are monomers of 73%, a % of features that are trimers of 7% and a % of molecules in dimers of 30%. In data set [7], this molecule registered a % of molecules in monomers of 54% and a % of molecules in trimers of 16%. For the same molecule, in data set [8], the % of features that are dimers stood at 15%, the % of features that are monomers amounted to 63%, the % of features that are trimers came to 22% and the % of molecules in dimers worked out at 19%. Further, in data set [8], the % of molecules in monomers is 40% and the % of molecules in trimers turned out to be 41%. In data set [9], this molecule returned a % of features that are dimers of 7%, a % of features that are monomers of 73%, a % of features that are trimers of 20% and a % of molecules in dimers of 9%. For the same molecule, in [9], the % of molecules in monomers amounted to 50% and the % of molecules in trimers turned out to be 41%. In data set [10], this molecule yielded a % of features that are dimers of 7%, a % of features that are monomers of 73%, a % of features that are trimers of 20% and a % of molecules in dimers of 9%. In addition, in [10], the % of molecules in monomers was found to be 50% and the % of molecules in trimers is 41%.

As for `Cc1cc2c(cc1C)N(C[C@H](O)[C@H](O)[C@H](O)COP(=O)(O)O)c1[nH]c(=O)[nH]c(=O)c1N2` [reduced FMN], in data set [2] (setting [13]), the K d was determined as 0.8 ± 20% μM. Besides, the “K m ^RF (μM)” value in data set [11] (saturating ATP (252 μM), 0.8 mM MgCl2, 3 mM sodium dithionite (flavin reduced)) came out at 9.8 ± 10% µM.

For `Cc1cc2nc3c(=O)[nH]c(=O)nc-3n(C[C@H](O)[C@H](O)[C@H](O)CO)c2cc1C` [RF], the “K m ^RF (μM)” value in data set [12] is reported as 0.9 ± 10% μM.

With `Nc1ncnc2c1ncn2[C@@H]1O[C@H](COP(=O)(O)OP(=O)(O)OP(=O)(O)O)[C@@H](O)[C@H]1O` [ATP], in data set [2] (0.8 mM MgCl2, single site), the “K d (μM)” value came to 9.4 ± 20% μM. The “K m ^ATP (μM)” value in data set [11] (FMN 27.7 µM for kcat, 0.8 mM MgCl2, 3 mM sodium dithionite) amounted to 31.6 ± 10% µM.

Turning to `Nc1ncnc2c1ncn2[C@@H]1O[C@H](COP(=O)(O)OP(=O)(O)O)[C@@H](O)[C@H]1O` [ADP], in data set [2] (no MgCl2, single site), the “K d (μM)” value worked out at 4.1 ± 20% μM.
